Source: PMC3496659, “Analysis of the sulfur-regulated control of the cystathionine γ-lyase gene of Neurospora crassa”

Target: T1, CYS3 transcriptional activator (Neurospora crassa, UniProt P22697 1-236)
T1 sequence: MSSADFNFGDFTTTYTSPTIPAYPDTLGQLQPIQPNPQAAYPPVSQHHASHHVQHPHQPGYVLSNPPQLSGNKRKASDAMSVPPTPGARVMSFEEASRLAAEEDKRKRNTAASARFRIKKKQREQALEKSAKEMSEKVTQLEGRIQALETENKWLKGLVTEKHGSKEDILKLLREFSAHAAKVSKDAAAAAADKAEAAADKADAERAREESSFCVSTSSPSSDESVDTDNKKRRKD
Experiment: EMSA; Binding buffer not given (refs 14,20); 4% PAGE in 50 mM Tris-80 mM glycine-2 mM EDTA pH 8.5, 20 mA, 4 C
Details: protein: recombinant; chain copies: 2; label: 32P (T4 PNK); blunt

B1: cys-16+ Site 3 (dsDNA)
DNA 1: AACCTGAATTGCGCCATAGCCAAA
DNA 2: TTTGGCTATGGCGCAATTCAGGTT
B1: binds.
